According to IntAct's records for PubMed 24606901:

B1: Succinate dehydrogenase [ubiquinone] iron-sulfur subunit, mitochondrial (Homo sapiens), P21912 (parent)
chain: MAAVVALSLRRRLPATTLGGACLQASRGAQTAAATAPRIKKFAIYRWDPDKAGDKPHMQTYEVDLNKCGPMVLDALIKIKNEVDSTLTFRRSCREGICGSCAMNINGGNTLACTRRIDTNLNKVSKIYPLPHMYVIKDLVPDLSNFYAQYKSIEPYLKKKDESQEGKQQYLQSIEEREKLDGLYECILCACCSTSCPSYWWNGDKYLGPAVLMQAYRWMIDSRDDFTEERLAKLQDPFSLYRCHTIMNCTRTCPKGLNPGKAIAEIKKMMATYKEKKASV
partner: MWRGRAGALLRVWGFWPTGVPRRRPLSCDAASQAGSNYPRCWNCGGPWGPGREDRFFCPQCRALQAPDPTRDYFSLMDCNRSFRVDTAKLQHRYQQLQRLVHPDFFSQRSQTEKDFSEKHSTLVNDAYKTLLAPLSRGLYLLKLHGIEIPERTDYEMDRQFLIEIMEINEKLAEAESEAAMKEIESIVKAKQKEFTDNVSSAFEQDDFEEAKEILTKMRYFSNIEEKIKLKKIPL

Variants of: B1
Conditions: with hsc20_human HSCB

**Q.** For MAAVVALSLRRRLPATTLGGACLQASRGAQTAAATAPRIKKFAIYRWDPDKAGDKPHMQTYEVDLNKCGPMVLDALIKIKNEVDSTLTFRRSCREGICGSCAMNINGGNTLACTRRIDTNLNKVSKIYPLPHMYVIKDLVPDLSNFYAQYKSIEPYLKKKDESQEGKQQYLQSIEEREKLDGLYECILCACCSTSCPSYWWNGDKYLGPAVLMQAYRWMIDSRDDFTEERLAKLQDPFSLYRCHTIMNCTRTCPKGLNPGKAIAEIKKMMATYKEAAASV [K276A;K277A], which “effect of a mutation on the interaction” value is on record?
**A.** Its value is “disrupting interaction”.

**Q.** MAAVVALSLRRRLPATTLGGACLQASRGAQTAAATAPRIKKFAIYRWDPDKAGDKPHMQTYEVDLNKCGPMVLDALIKIKNEVDSTLTFRRSCREGICGSCAMNINGGNTLACTRRIDTNLNKVSKIYPLPHMYVIKDLVPDLSNFYAQYKSIEPYLKKKDESQEGKQQYLQSIEEREKLDGLYECILCACCSTSCPSYWWNGDKYLGPAVLMQAYRWMIDSRDDFTEERLAKLQDPFSLYRCHTIMNCTRTCPKGLNPGKAIAEIAAMMATYKEKKASV [K267A;K268A] was tested. Which “effect of a mutation on the interaction” value did it give?
**A.** The value was “disrupting interaction strength”.

Variants of: B1
Conditions: with hsc20_human HSCB
Remark: another data set of the same source

**Q.** How did the “effect of a mutation on the interaction” value turn out when MAAVVALSLRRRLPATTLGGACLQASRGAQTAAATAPRIKKFAIYRWDPDKAGDKPHMQTYEVDLNKCGPMVLDALIKIKNEVDSTLTFRRSCREGICGSCAMNINGGNTLACTRRIDTNLNKVSKIYPLPHMYVIKDLVPDLSNFYAQYKSIEPYLKKKDESQEGKQQYLQSIEEREKLDGLYECILCACCSTSCPSYWWNGDKYLGPAVLMQAYRWMIDSRDDFTEERLAKLQDPFSAYRCHTIMNCTRTCPKGLNPGKAIAEIKKMMATYKEKKASV [L240A] was run?
**A.** The value was “disrupting interaction strength”.

Variants of: B1
Conditions: with hsc20_human HSCB
Remark: another data set of the same source

**Q.** How did the “effect of a mutation on the interaction” value turn out when MAAVVALSLRRRLPATTLGGACLQASRGAQTAAATAPRIKKFAAYRWDPDKAGDKPHMQTYEVDLNKCGPMVLDALIKIKNEVDSTLTFRRSCREGICGSCAMNINGGNTLACTRRIDTNLNKVSKIYPLPHMYVIKDLVPDLSNFYAQYKSIEPYLKKKDESQEGKQQYLQSIEEREKLDGLYECILCACCSTSCPSYWWNGDKYLGPAVLMQAYRWMIDSRDDFTEERLAKLQDPFSLYRCHTIMNCTRTCPKGLNPGKAIAEIKKMMATYKEKKASV [I44A] was run?
**A.** The value was “disrupting interaction strength”.
